From publication PMC5554173

Legend:
[1] = spotting on 7H11 OADC plates; conditions: glycan lost
[2] = glycan lost

| Protein | other: colony formation on solid medium [1] | other: invasion and growth in macrophages [2] |
| --- | --- | --- |
| LprG (Rv1411c): LprG T231A (protein) parent chain: MRTPRRHCRRIAVLAAVSIAATVVAGCSSGSKPSGGPLPDAKPLVEEATAQTKALKSAHMVLTVNGKIPGLSLKTLSGDLTTNPTAATGNVKLTLGGSDIDADFVVFDGILYATLTPNQWSDFGPAADIYDPAQVLNPDTGLANVLANFADAKAEGRDTINGQNTIRISGKVSAQAVNQIAPPFNATQPVPATVWIQETGDHQLAQAQLDRGSGNSVQMTLSKWGEKVQVTKPPVS | no change |  |
| LprG (Rv1411c): lprG A691G (T231A) (protein) parent chain: MRTPRRHCRRIAVLAAVSIAATVVAGCSSGSKPSGGPLPDAKPLVEEATAQTKALKSAHMVLTVNGKIPGLSLKTLSGDLTTNPTAATGNVKLTLGGSDIDADFVVFDGILYATLTPNQWSDFGPAADIYDPAQVLNPDTGLANVLANFADAKAEGRDTINGQNTIRISGKVSAQAVNQIAPPFNATQPVPATVWIQETGDHQLAQAQLDRGSGNSVQMTLSKWGEKVQVTKPPVS |  | no change |
